“And” between values parts separate entries of the source, which are not always exact repeats. Equal entries are not always repeated.
B1: CRY2: recombinant full-length Arabidopsis cryptochrome 2 (protein)
chain: MKMDKKTIVWFRRDLRIEDNPALAAAAHEGSVFPVFIWCPEEEGQFYPGRASRWWMKQSLAHLSQSLKALGSDLTLIKTHNTISAILDCIRVTGATKVVFNHLYDPVSLVRDHTVKEKLVERGISVQSYNGDLLYEPWEIYCEKGKPFTSFNSYWKKCLDMSIESVMLPPPWRLMPITAAAEAIWACSIEELGLENEAEKPSNALLTRAWSPGWSNADKLLNEFIEKQLIDYAKNSKKVVGNSTSLLSPYLHFGEISVRHVFQCARMKQIIWARDKNSEGEESADLFLRGIGLREYSRYICFNFPFTHEQSLLSHLRFFPWDADVDKFKAWRQGRTGYPLVDAGMRELWATGWMHNRIRVIVSSFAVKFLLLPWKWGMKYFWDTLLDADLECDILGWQYISGSIPDGHELDRLDNPALQGAKYDPEGEYIRQWLPELARLPTEWIHHPWDAPLTVLKASGVELGTNYAKPIVDIDTARELLAKAISRTREAQIMIGAAPDEIVADSFEALGANTIKEPGLCPSVSSNDQQVPSAVRYNGSKRVKPEEEEERDMKKSRGFDERELFSTAESSSSSSVFFVSQSCSLASEGKNLEGIQDSSDQITTSLGKNGCK
modifications: left off: His10, N-terminal, cleaved | Twin-Strep, N-terminal, cleaved
B2: UVR8^12–415: UVR8 core with C-terminus extended to include the VP peptide motif, residues 12–415 (protein)
chain: APPRKVLIISAGASHSVALLSGDIVCSWGRGEDGQLGHGDAEDRPSPTQLSALDGHQIVSVTCGADHTVAYSQSGMEVYSWGWGDFGRLGHGNSSDLFTPLPIKALHGIRIKQIACGDSHCLAVTMEGEVQSWGRNQNGQLGLGDTEDSLVPQKIQAFEGIRIKMVAAGAEHTAAVTEDGDLYGWGWGRYGNLGLGDRTDRLVPERVTSTGGEKMSMVACGWRHTISVSYSGALYTYGWSKYGQLGHGDLEDHLIPHKLEALSNSFISQISGGWRHTMALTSDGKLYGWGWNKFGQVGVGNNLDQCSPVQVRFPDDQKVVQVSCGWRHTLAVTERNNVFAWGRGTNGQLGIGESVDRNFPKIIEALSVDGASGQHIESSNIDPSSGKSWVSPAERYAVVPDETG
modifications: left off: His10, N-terminal, cleaved | Twin-Strep, N-terminal, cleaved
B3: UVR8^12–381: UVR8 β-propeller core, residues 12–381 (protein, UniProt Q9FN03 12-381, looked up, fragment)
chain: APPRKVLIISAGASHSVALLSGDIVCSWGRGEDGQLGHGDAEDRPSPTQLSALDGHQIVSVTCGADHTVAYSQSGMEVYSWGWGDFGRLGHGNSSDLFTPLPIKALHGIRIKQIACGDSHCLAVTMEGEVQSWGRNQNGQLGLGDTEDSLVPQKIQAFEGIRIKMVAAGAEHTAAVTEDGDLYGWGWGRYGNLGLGDRTDRLVPERVTSTGGEKMSMVACGWRHTISVSYSGALYTYGWSKYGQLGHGDLEDHLIPHKLEALSNSFISQISGGWRHTMALTSDGKLYGWGWNKFGQVGVGNNLDQCSPVQVRFPDDQKVVQVSCGWRHTLAVTERNNVFAWGRGTNGQLGIGESVDRNFPKIIEALSVDG

Experiments:
COP1 WD40 domain [1] = test: Grating-coupled interferometry (GCI) binding kinetics versus the COP1 WD40 domain; parameters: species or system Arabidopsis; conditions: for Kd: ligand COP1 (2,000 pg/mm^2), analyte pre-monomerized by UV-B, highest concentration 2 μM, 150 mM NaCl, 20 mM HEPES 7.4, 2 mM BME, 25°C, 1:1 binding model, read-out: Kd (dissociation constant), + UV-B
Procedure: For CRY2 activation, proteins were diluted to their final assay concentrations (as indicated in the figure legends) in Eppendorf tubes and exposed to 10 min of fluorescent light on ice.
The Creoptix WAVE system (Creoptix AG), a label‐free surface biosensor, was used to perform GCI experiments. All experiments were performed on 2PCH or 4PCH WAVEchips (quasi‐planar polycarboxylate surface; Creoptix AG). After a borate buffer conditioning (100 mM sodium borate pH 9.0, 1 M NaCl; Xantec), COP1 (ligand) was immobilized on the chip surface using standard amine‐coupling: 7 min activation [1:1 mix of 400 mM N‐(3‐dimethylaminopropyl)‐N′‐ethylcarbodiimide hydrochloride and 100 mM N‐hydroxysuccinimide (both Xantec)], injection of COP1 (10 μg/ml) in 10 mM sodium acetate pH 5.0 (Sigma) until the desired density was reached, and final quenching with 1 M ethanolamine pH 8.0 for 7 min (Xantec). […] Blank injections were used for double referencing and a dimethyl sulfoxide (DMSO) calibration curve for bulk correction. Analysis and correction of the obtained data were performed using the Creoptix WAVEcontrol software (applied corrections: X and Y offset; DMSO calibration; double referencing), and a one‐to‐one binding model or a heterogenous ligand model with bulk correction was used to fit all experiments.

COP1 WD40 domain [2] = test: Analytical size-exclusion chromatography binding assay; parameters: species or system Arabidopsis; conditions: Superdex 200 Increase 10/300 GL, ~4 μM per protein, 150 mM NaCl, 20 mM HEPES 7.4, 2 mM BME, protein pre-monomerized by UV-B
Procedure: 500 μl of the respective protein solution or a mixture (~ 4 μM per protein) was loaded sequentially onto the column, and elution at 0.75 ml/min was monitored by UV absorbance at 280 nm.

| Molecule | Binding to the COP1 WD40 domain in the absence of supplemental fluorescent light (COP1 WD40 domain [1]; ligand COP1 (2000 pg/mm2), analyte + no additional light, highest concentration 14 μM) | Kd (COP1 WD40 domain [1]) | Interaction with the COP1 WD40 domain in size-exclusion chromatography, UV-B-activated (COP1 WD40 domain [2]) |
| --- | --- | --- | --- |
| B1 | No binding was observed |  |  |
| B2 |  | 120 nM |  |
| B3 |  | ~500 nM and 583 nM | interacts |
